US20200392459

Target: TALEN T3 pair (T3L/T3R) (artificial) (UniProt Q56830+Q56830)
Assay: cell_activity
Settings: CD34+ cells

| Substance | activity (mock 0.03%, p<0.0001, off-target) [% indels] | activity (mock 0.02%, p=0.0015, not significant in K562 or CD4+) [% indels] |
| --- | --- | --- |
| CNOT10 off-target locus | 0.25 | – |
| FAM5C off-target locus | – | 0.05 |
